T1: human EphB1 (Homo sapiens, UniProt P54762)
T1 construct: a protein of the extracellular region of each human Eph receptor fused with the SEAP protein and the His tag; made in house; host or cells: Expi293F cells (culture supernatant)
T1 sequence (P54762 18-540 limits assumed): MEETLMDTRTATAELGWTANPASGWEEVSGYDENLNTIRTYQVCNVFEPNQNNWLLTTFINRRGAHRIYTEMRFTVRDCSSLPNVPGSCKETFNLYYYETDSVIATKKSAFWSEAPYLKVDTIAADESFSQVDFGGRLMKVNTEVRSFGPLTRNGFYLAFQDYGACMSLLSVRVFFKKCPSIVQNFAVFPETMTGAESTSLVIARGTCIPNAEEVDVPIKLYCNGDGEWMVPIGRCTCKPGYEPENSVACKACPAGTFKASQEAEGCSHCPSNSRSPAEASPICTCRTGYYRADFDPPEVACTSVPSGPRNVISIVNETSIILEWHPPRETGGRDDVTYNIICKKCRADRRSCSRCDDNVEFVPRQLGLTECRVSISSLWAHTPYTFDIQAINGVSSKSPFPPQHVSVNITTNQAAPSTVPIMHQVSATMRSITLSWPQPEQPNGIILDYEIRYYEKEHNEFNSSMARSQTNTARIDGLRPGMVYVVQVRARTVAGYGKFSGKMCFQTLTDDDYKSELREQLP

T2: human EphA8 (Homo sapiens, UniProt P29322)
T2 construct: a protein of the extracellular region of each human Eph receptor fused with the SEAP protein and the His tag; made in house; host or cells: Expi293F cells (culture supernatant)
T2 sequence (P29322 28-542 limits assumed): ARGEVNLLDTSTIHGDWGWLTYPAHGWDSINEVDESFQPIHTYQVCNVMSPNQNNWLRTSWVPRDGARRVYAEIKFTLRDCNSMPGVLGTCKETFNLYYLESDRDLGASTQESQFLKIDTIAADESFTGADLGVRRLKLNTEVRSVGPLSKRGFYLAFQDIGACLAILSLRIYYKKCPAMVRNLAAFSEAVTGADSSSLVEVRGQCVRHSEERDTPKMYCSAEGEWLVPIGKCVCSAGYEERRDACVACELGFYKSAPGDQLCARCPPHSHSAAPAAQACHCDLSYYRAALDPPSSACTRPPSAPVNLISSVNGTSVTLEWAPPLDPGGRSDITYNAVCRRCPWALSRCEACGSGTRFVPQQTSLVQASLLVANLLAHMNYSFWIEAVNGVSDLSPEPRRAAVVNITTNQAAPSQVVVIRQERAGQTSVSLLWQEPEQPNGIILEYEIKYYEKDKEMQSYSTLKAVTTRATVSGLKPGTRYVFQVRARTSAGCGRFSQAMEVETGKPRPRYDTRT


What was measured:
Assay in all cases: Selectivity ELISA of humanized antibodies for human Eph receptor
Format in all cases: binding
[1] = molecular target: T3, human EphA4 (Homo sapiens, UniProt P54764); conditions: coated protein 1 nM; reference set to 100%
T3 construct: made in house; not restated for the human SEAP-His protein
T3 sequence (P54764 20-547): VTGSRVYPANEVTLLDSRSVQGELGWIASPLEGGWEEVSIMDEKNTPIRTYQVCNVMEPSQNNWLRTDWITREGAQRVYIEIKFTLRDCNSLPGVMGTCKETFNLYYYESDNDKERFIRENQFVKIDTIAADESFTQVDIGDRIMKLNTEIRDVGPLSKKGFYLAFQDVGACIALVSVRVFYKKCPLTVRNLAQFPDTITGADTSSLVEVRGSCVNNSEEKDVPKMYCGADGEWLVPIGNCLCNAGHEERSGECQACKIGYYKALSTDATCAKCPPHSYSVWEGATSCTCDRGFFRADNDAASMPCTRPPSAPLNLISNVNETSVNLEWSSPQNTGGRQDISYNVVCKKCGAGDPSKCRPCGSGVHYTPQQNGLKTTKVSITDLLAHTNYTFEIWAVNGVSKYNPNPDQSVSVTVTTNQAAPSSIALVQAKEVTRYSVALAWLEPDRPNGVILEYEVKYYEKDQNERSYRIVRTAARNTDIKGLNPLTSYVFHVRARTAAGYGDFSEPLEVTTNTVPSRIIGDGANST
Procedure, shortened: (§1)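 His-tagged SEAP fusions of each human Eph receptor extracellular region, from Expi293F supernatants, were captured at 1 nM on anti-His-coated wells. Humanized antibody was bound 1 h at room temperature, then detected with HRP […] IgG. TMB development was acid-stopped and read at 450 nm.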

[2] = molecular target: T1, human EphB1; conditions: coated protein 1 nM
Procedure, shortened: as §1

[3] = molecular target: T4, human EphA5 (Homo sapiens, UniProt P54756); conditions: coated protein 1 nM
T4 construct: a protein of the extracellular region of each human Eph receptor fused with the SEAP protein and the His tag; made in house; host or cells: Expi293F cells (culture supernatant)
T4 sequence (P54756 25-573 limits assumed): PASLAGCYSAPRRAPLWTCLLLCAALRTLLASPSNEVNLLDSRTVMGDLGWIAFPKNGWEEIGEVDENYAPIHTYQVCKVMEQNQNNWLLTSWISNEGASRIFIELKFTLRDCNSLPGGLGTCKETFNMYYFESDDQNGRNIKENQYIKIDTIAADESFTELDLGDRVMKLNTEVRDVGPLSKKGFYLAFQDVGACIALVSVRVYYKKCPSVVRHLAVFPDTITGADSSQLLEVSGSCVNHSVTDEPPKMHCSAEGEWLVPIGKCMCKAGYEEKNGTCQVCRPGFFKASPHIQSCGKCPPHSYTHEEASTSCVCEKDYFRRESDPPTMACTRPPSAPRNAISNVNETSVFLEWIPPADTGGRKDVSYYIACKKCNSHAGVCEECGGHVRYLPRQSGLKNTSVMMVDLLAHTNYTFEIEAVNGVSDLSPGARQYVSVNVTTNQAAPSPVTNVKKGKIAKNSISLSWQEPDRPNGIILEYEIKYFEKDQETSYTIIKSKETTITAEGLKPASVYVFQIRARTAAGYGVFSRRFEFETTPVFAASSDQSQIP
Procedure, shortened: as §1

[4] = molecular target: T2, human EphA8; conditions: coated protein 1 nM
Procedure, shortened: as §1

[5] = molecular target: T5, human EphA2 (Homo sapiens, UniProt P29317); conditions: coated protein 1 nM
T5 construct: a protein of the extracellular region of each human Eph receptor fused with the SEAP protein and the His tag; made in house; host or cells: Expi293F cells (culture supernatant)
T5 sequence (P29317 24-537 limits assumed): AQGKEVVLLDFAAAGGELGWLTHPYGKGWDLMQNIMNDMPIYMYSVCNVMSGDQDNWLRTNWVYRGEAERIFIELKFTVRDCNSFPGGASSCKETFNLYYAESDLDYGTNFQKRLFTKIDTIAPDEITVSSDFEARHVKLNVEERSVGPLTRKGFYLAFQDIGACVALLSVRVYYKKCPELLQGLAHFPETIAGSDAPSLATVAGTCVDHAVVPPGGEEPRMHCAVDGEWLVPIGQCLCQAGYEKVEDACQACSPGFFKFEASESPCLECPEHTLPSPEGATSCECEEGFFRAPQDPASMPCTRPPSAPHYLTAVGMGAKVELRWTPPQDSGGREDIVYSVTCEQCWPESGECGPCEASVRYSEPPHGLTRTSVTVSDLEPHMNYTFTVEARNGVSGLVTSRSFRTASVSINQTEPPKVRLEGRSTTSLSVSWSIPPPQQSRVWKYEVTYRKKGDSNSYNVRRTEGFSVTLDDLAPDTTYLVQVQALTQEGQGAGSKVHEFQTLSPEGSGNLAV
Procedure, shortened: as §1

[6] = molecular target: SEAP-His (Homo sapiens, UniProt P05187); conditions: coated protein 1 nM
Sequence of SEAP-His (P05187 23-511 limits assumed): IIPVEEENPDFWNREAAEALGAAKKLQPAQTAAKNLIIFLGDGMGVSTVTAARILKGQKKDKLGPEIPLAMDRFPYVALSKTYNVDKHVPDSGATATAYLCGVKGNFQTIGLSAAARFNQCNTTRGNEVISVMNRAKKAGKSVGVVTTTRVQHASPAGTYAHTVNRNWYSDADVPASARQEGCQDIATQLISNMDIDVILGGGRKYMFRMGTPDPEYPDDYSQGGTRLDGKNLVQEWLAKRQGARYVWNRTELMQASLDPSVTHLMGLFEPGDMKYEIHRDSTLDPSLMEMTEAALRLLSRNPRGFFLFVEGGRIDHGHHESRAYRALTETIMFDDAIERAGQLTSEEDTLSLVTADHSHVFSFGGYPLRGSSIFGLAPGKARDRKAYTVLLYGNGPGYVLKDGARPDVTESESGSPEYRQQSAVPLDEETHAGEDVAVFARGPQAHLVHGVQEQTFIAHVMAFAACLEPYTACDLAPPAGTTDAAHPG
Procedure, shortened: as §1

Molecule	hEphA4-SEAP-: absorbance at 450 nm, percentage with respect to hEphA4-SEAP-His as 100% [1] [%]	hEphB1-SEAP-: absorbance at 450 nm, percentage with respect to hEphA4-SEAP-His as 100% [2] [%]	hEphA5-SEAP-: absorbance at 450 nm, percentage with respect to hEphA4-SEAP-His as 100% [3] [%]	hEphA8-SEAP-: absorbance at 450 nm, percentage with respect to hEphA4-SEAP-His as 100% [4] [%]	hEphA2-SEAP-: absorbance at 450 nm, percentage with respect to hEphA4-SEAP-His as 100% [5] [%]	SEAP-His: absorbance at 450 nm, percentage with respect to hEphA4-SEAP-His as 100% [6] [%]
152 (antibody, V domains shown, synthetic humanized antibody heavy chain variable region sequence; synthetic humanized antibody light chain variable region sequence) VH: QVQLVQSGSELKKPGASVKVSCKASGYTFTDYSMHWVRQAPGQGLEWMGWINTETGEPTYAQGFTGRFVFSLDTSVSTAYLQISSLKAEDTAVYYCARIPLYYYGSRYWYFDVWGQGTTVTVSS VL: DIQMTQSPSSLSASVGDRVTITCRASENIYRNLAWYQQKPGKAPKLLLYAATNLADGVPSRFSGSGSGTDYTLTISSLQSEDFATYYCQHFWGTPWTFGQGTKVEIK	100	5.9	5.8	6.0	5.8	5.4
151 (antibody, V domains shown, synthetic humanized antibody heavy chain variable region sequence; synthetic humanized antibody light chain variable region sequence) VH: QIQLVQSGSELKKPGASVKVSCKASGYTFTDYSMHWVRQAPGQGLKWMGWINTETGEPTYAQGFTGRFVFSLDTSVSTAYLQISSLKAEDTAVYYCARIPLYYYGSRYWYFDVWGQGTTVTVSS VL: DIQMTQSPSSLSASVGDRVTITCRASENIYRNLAWYQQKPGKAPKLLLYAATNLADGVPSRFSGSGSGTDYTLTISSLQSEDFATYYCQHFWGTPWTFGQGTKVEIK	100	6.8	7.0	6.9	6.9	6.8
155 (antibody, V domains shown, synthetic humanized antibody heavy chain variable region sequence; synthetic humanized antibody light chain variable region sequence) VH: QIQLVQSGSELKKPGASVKVSCKASGYTFTDYSMHWVRQAPGQGLKWMGWINTETGEPTYADDFKGRFVFSLDTSVSTAYLQISSLKAEDTAVYYCARIPLYYYGSRYWYFDVWGQGTTVTVSS VL: DIQMTQSPSSLSASVGDRVTITCRASENIYRNLAWYQQKPGKAPKLLLYAATNLADGVPSRFSGSGSGTDYTLTISSLQSEDFATYYCQHFWGTPWTFGQGTKVEIK	100	5.4	5.6	5.5	5.5	5.8
157 (antibody, V domains shown, synthetic humanized antibody heavy chain variable region sequence; synthetic humanized antibody light chain variable region sequence) VH: QVQLVQSGSELKKPGASVKVSCKASGYTFTDYSMHWVRQAPGQGLEWMGWINTETGEPTYAQGFTGRFVFSLDTSVSTAYLQISSLKAEDTAVYYCARIPLYYYGSRYWYFDVWGQGTTVTVSS VL: DIQMTQSPSSLSASVGDRVTITCRASENIYRNLAWYQQKPGKAPQLLLYAATNLADGVPSRFSGSGSGTDYTLTISSLQPEDFATYYCQHFWGTPWTFGQGTKVEIK	100	6.1	6.1	6.0	6.3	6.1
154 (antibody, V domains shown, synthetic humanized antibody heavy chain variable region sequence; synthetic humanized antibody light chain variable region sequence) VH: QVQLVQSGSELKKPGASVKVSCKASGYTFTDYSMHWVRQAPGQGLEWMGWINTETGEPTYADDFKGRFVFSLDTSVSTAYLQISSLKAEDTAVYYCARIPLYYYGSRYWYFDVWGQGTTVTVSS VL: DIQMTQSPSSLSASVGDRVTITCRASENIYRNLAWYQQKPGKAPKLLLYAATNLADGVPSRFSGSGSGTDYTLTISSLQSEDFATYYCQHFWGTPWTFGQGTKVEIK	100	6.3	6.3	5.5	6.2	6.3
153 (antibody, V domains shown, synthetic humanized antibody heavy chain variable region sequence; synthetic humanized antibody light chain variable region sequence) VH: QVQLVQSGSELKKPGASVKVSCKASGYTFTDYSMHWVRQAPGQGLKWMGWINTETGEPTYAQGFTGRFVFSLDTSVSTAYLQISSLKAEDTAVYYCARIPLYYYGSRYWYFDVWGQGTTVTVSS VL: DIQMTQSPSSLSASVGDRVTITCRASENIYRNLAWYQQKPGKAPKLLLYAATNLADGVPSRFSGSGSGTDYTLTISSLQSEDFATYYCQHFWGTPWTFGQGTKVEIK	100	6.0	6.1	6.1	6.0	5.9
145 (antibody, V domains shown, synthetic humanized antibody heavy chain variable region sequence; synthetic humanized antibody light chain variable region sequence) VH: QVQLVQSGSELKKPGASVKVSCKASGYTFTDYSMHWVRQAPGQGLKWMGWINTETGEPTYADDFKGRFVFSLDTSVSTAYLQISSLKAEDTAVYYCARIPLYYYGSRYWYFDVWGQGTTVTVSS VL: DIQMTQSPSSLSASVGDRVTITCRASENIYRNLAWYQQKPGKAPKLLLYAATNLADGVPSRFSGSGSGTDYTLTISSLQSEDFATYYCQHFWGTPWTFGQGTKVEIK	100	6.5	6.6	6.6	6.5	6.4
